In patent US20170137855A1, “RECOMBINANT CELLS AND METHODS FOR NONPHOSPHORYLATIVE METABOLISM” (REGENTS OF THE UNIVERSITY OF MINNESOTA, priority 2015, published 2017):

Assays:
[1] = substrate: OC1OC[C@H](O)[C@H](O)[C@H]1O; assay: L-arabinose dehydrogenase, NADH generation at 340 nm; format: biochemical, Burkholderia multivorans; conditions: other: L-arabinose 0 to 10 mM, 1 mM NAD+, pH 7.5, 30° C.
Method: A series of enzymatic assays were conducted to estimate the initial activity as a function of starting substrate concentration. […] Kinetic constants (kcat/Km) for following enzymes were calculated with the same method.

[2] = substrate: O=C(O)[C@H](O)[C@@H](O)[C@@H](O)CO; assay: L-arabonate dehydratase, semicarbazide method; format: biochemical, Burkholderia multivorans; conditions: other: 100 nM enzyme, 100 mM Tris-HCl, 5 mM MgSO4, pH 7.5
Source text: (§1) Finally, the 2-ketoacids produced were quantified by detecting their semicarbazone absorbance at 250 nm.

[3] = substrate: O=C(O)C(=O)C[C@@H](O)CO; assay: 2-keto-3-deoxy-L-arabonate dehydratase, coupled assay with KGSADH; format: biochemical, Burkholderia multivorans; conditions: other: coupled assay, substrate from 0-20 mM L-arabonate, 1 mM NAD+, pH 7.5, 25° C.
Method: (§2) 2-Keto-3-deoxy-D-xylonate dehydratase (XylX/DR64-8450), 2-keto-3-deoxy-L-arabonate dehydratase (AraD) and 5-keto-4-deoxy-D-glucarate dehydratase (YcbC): Enzyme activities of XylX, DR64-8450, AraD and YcbC were assayed spectrophotometrically in a coupled assay with the corresponding previous dehydratase and 2-ketoglutaric semialdehyde dehydrogenase (KGSADH) as previously described (Watanabe et al., 2006. J Biol. Chem. 281:33521-33536). […] The reaction was initiated by adding an appropriate amount of 2-keto-3-deoxy-D-xylonate dehydratase (XylX/DR64-8450)/2-keto-3-deoxy-L-arabonate dehydratase (AraD)/5-keto-4-deoxy-D-glucarate dehydratase (YcbC), and the increasing absorbance at 340 nm caused by NADH produced in the reaction was monitored.

[4] = substrate: O=C(O)[C@H]1OC(O)[C@H](O)[C@@H](O)[C@H]1O; assay: purified protein, by the assay type; conditions: other: D-galacturonate 0 to 10 mM, 1 mM NAD+, pH 7.5, 30° C., 30.0 °C
[5] = substrate: O=C(O)[C@@H](O)[C@H](O)[C@H](O)[C@@H](O)C(=O)O; assay: purified protein, by the assay type; conditions: other: 100 nM enzyme, 100 mM Tris-HCl, 5 mM MgSO4, pH 7.5
[6] = substrate: O=C(O)[C@H](O)[C@@H](O)[C@H](O)CO; assay: B. xenovorans D-xylonate dehydratase, semicarbazide method; format: biochemical, Burkholderia xenovorans LB400; conditions: other: 100 nM enzyme, 100 mM Tris-HCl, 5 mM MgSO4, pH 7.5
Source text: as §1

[7] = substrate: O=C(O)[C@H](O)[C@@H](O)[C@H](O)CO; assay: C. crescentus D-xylonate dehydratase, semicarbazide method; format: biochemical, Caulobacter crescentus; conditions: other: 100 nM enzyme, 100 mM Tris-HCl, 5 mM MgSO4, pH 7.5
Source text: as §1

[8] = substrate: O=C(O)C(=O)C[C@H](O)CO; assay: B. xenovorans 2-keto-3-deoxy-D-xylonate dehydratase, coupled assay with KGSADH; format: biochemical, Burkholderia xenovorans LB400; conditions: other: coupled assay, substrate from 0-20 mM D-xylonate, 1 mM NAD+, pH 7.5, 25° C.
Method: as §2

[9] = substrate: O=C(O)C(=O)C[C@H](O)CO; assay: C. crescentus 2-keto-3-deoxy-D-xylonate dehydratase, coupled assay with KGSADH; format: biochemical, Caulobacter crescentus; conditions: other: coupled assay, substrate from 0-20 mM D-xylonate, 1 mM NAD+, pH 7.5, 25° C.
Method: as §2

B1: Burkholderia multivorans L-arabinose dehydrogenase (AraA, BmulJ 5320) (Burkholderia multivorans ATCC 17616) (protein)
chain: MSQVVSLGVVGIGKIARDQHLPAIAAEPGFALTACASRHAEVTGVRNYPDLGALLAGEPELAAVSLCAPPQVRYAQARAALNAGKHVMLEKPPGATLGEVAALEALAQSRGLTLFATWHSRCASAVEPARAWLATREIRAVQVRWKEDVRRWHPGQQWIWEPGGLGVFDPGINALSIVTRILPRELVLREATLVVPSDTQTPIAAELECADTDGVPVHAEFDWRHGPVEQWEIAVDTADGVLAISAGGAKLSIAGEPVEVGPAREYPALYAQFHALIARRESDVDVRPLRLVADAFLFGRRVDTEAFGR
notes: gene from B. multivorans genomic DNA
kcat [1]: 101.4 s⁻¹

B2: Burkholderia multivorans L-arabonate dehydratase (AraC, BmulJ 5323) (Burkholderia multivorans ATCC 17616) (protein)
chain: MSATKPRLRSAQWFGTNDKNGFMYRSWMKNQGIPDHEFDGRPIIGICNTWSELTPCNAHFRKLAEHVKRGIFEAGGFPVEFPVFSNGESNLRPSAMLTRNLASMDVEEAIRGNPIDAVVLLAGCDKTTPALLMGAASCDVPAIVVSGGPMLNGKLEGKNIGSGTAVWQLHEALKAGEIDLHHFLSAEAGMSRSAGTCNTMGTASTMACMAEALGVALPHNAAIPAVDSRRYVLAHMSGIRIVEMALEGLVLSKVLTRAAFENAIRVNAAIGGSTNAVIHLKAIAGRIGVPLELEDWMRIGRDTPTIVDLMPSGRFLMEEFYYAGGLPAVLRRLGEGGLLPHPDALTVNGKTLWDNVREAPNYDDEVIRPLDRPLIADGGIRILRGNLAPRGAVLKPSAASPELLKHRGRAVVFENFDHYKATINDESLDVDANSVLVLKNCGPRGYPGMAEVGNMGLPPKLLRQGVKDMVRISDARMSGTAYGTVVLHVAPEAAAGGPLAAVRNGDWIELDCEAGTLHLDIPDDELQRRLSDVDPAAAPGVAGQAGKGGYARLYLDHVLQADEGCDLDFLVGTRGAEVPSHSH
notes: as for B1
kcat [2]: 0.17 s⁻¹

B3: Burkholderia multivorans 2-keto-3-deoxy-L-arabonate dehydratase (AraD, BmulJ 5321) (Burkholderia multivorans ATCC 17616) (protein)
chain: MTSSRTPRYRGIFPVVPTTFTETGELDLASQKRAVDFMIDAGSDGLCILANFSEQFALADDERDVLTRTILEHVAGRVPVIVTTSHYSTQTCIARSVRAQQLGAAMVMVMPPYHGATFRVPEAQIHAFYARLSDALSIPIMIQDAPASGTVLSAPFLAQLAREIEHVAYFKIETPGAATKLRELIRLGGDAIEGPWDGEEAITLLADLHAGATGAMTGGAYPDGIRPILEAHREGRHDDAFARYQTWLPLINHENRQSGILTAKALMREGGVIACEAPRHPMPTLHPDTRAELIAIARRLDPLVLRWAR
notes: coupled with AraC and KGSADH
Km [3]: 9700 µM
kcat [3]: 0.23 s⁻¹

B4: Pseudomonas putida KT2440 uronate dehydrogenase (Udh) (Pseudomonas putida KT2440) (protein)
chain: MTTTPFNRLLLTGAAGGLGKVLRERLKGYAEVLRLSDISPMAPAAGPHEEVITCDLADKAAVHTLVEGVDAIIHFGGVSTEHAFEEILGPNICGVFHVYEAARKHGVKRIIFASSNHTIGFYRQDERIDAHAPRRPDSYYGLSKCYGEDVASFYFDRYGIETVSIRIGSSFPQPQNLRMLCTWLSYDDLVQLIERGLFTPGVGHTIVYGASDNRTVWWDNRHAAHLGYVPKDSSETFRAAVEAQPAPAADDPSMVYQGGAFAVAGPFN
Km [4]: 150 µM
kcat [4]: 24.1 s⁻¹

B5: E. coli D-galactarate dehydratase (GarD) (Escherichia coli K-12) (protein)
chain: MANIEIRQETPTAFYIKVHDTDNVAIIVNDNGLKAGTRFPDGLELIEHIPQGHKVALLDIPANGEIIRYGEVIGYAVRAIPRGSWIDESMVVLPEAPPLHTLPLATKVPEPLPPLEGYTFEGYRNADGSVGTKNLLGITTSVHCVAGVVDYVVKIIERDLLPKYPNVDGVVGLNHLYGCGVAINAPAAVVPIRTIHNISLNPNFGGEVMVIGLGCEKLQPERLLTGTDDVQAIPVESASIVSLQDEKHVGFQSMVEDILQIAERHLQKLNQRQRETCPASELVVGMQCGGSDAFSGVTANPAVGYASDLLVRCGATVMFSEVTEVRDAIHLLTPRAVNEEVGKRLLEEMEWYDNYLNMGKTDRSANPSPGNKKGGLANVVEKALGSIAKSGKSAIVEVLSPGQRPTKRGLIYAATPASDFVCGTQQVASGITVQVFTTGRGTPYGLMAVPVIKMATRTELANRWFDLMDINAGTIATGEETIEEVGWKLFHFILDVASGKKKTFSDQWGLHNQLAVFNPAPVT
Km [5]: 760 µM
kcat [5]: 18.9 s⁻¹

B6: Burkholderia xenovorans LB400 D-xylonate dehydratase (DR64_8449) (Paraburkholderia xenovorans LB400) (protein)
chain: MSASTPRRLRSQEWFDDPSHADMTALYVERFMNYGLTREELQSGRPIIGIAQTGSDLAPCNRHHIELAARTKAGIRDAGGIPMEFPVHPLAEQSRRPTAALDRNLAYLGLVEILHGFPLDGVVLTTGCDKTTPACLMAAATVDMPAIVLSGGPMLDGWHEGKRVGSGTVIWHARNLLATGEIDYEGFMQLTTASSPSIGHCNTMGTALSMNSLAEALGMSLPGCASIPAAYRERGQMAYATGKRIVDLVREDVRPSHIMTKAAFENAIVVASALGASTNCPPHLIAIARHMGVELTLDDWQRVGEQVPLIVNCMPAGEYLGESFHRAGGVPAVLRELVHAQLVHRECLTVSGRTIGEIAADAPSPDRDVIRTTEDPLKHGAGFIVLSGNFFDSAIMKMSVVGEAFRQTYLSEPGNENTFEARAIVFDGPEDYHARINDPSLDIDQHCILVIRGAGTVGYPGSAEVVNMAPPAELVRQGITSLPTLGDGRQSGTSASPSILNMSPEAAVGGGLSLLRTNDRIRVDLNSRSVNVLVDDEELARRRETATFAIPPTQTPWQELYRQTVGQLSTGGCLEPATLYLKVIAERGNPRHSH
notes: gene from LB400 genomic DNA
Km [6]: 1520 ± 80 µM
kcat [6]: 1.73 ± 0.3 s⁻¹
kcat/Km [6]: 1140 M⁻¹ s⁻¹

B7: Caulobacter crescentus D-xylonate dehydratase (XylD) (Caulobacter vibrioides CB15) (protein)
chain: MRSALSNRTPRRFRSRDWFDNPDHIDMTALYLERFMNYGITPEELRSGKPIIGIAQTGSDISPCNRIHLDLVQRVRDGIRDAGGIPMEFPVHPIFENCRRPTAALDRNLSYLGLVETLHGYPIDAVVLTTGCDKTTPAGIMAATTVNIPAIVLSGGPMLDGWHENELVGSGTVIWRSRRKLAAGEITEEEFIDRAASSAPSAGHCNTMGTASTMNAVAEALGLSLTGCAAIPAPYRERGQMAYKTGQRIVDLAYDDVKPLDILTKQAFENAIALVAAAGGSTNAQPHIVAMARHAGVEITADDWRAAYDIPLIVNMQPAGKYLGERFHRAGGAPAVLWELLQQGRLHGDVLTVTGKTMSENLQGRETSDREVIFPYHEPLAEKAGFLVLKGNLFDFAIMKSSVIGEEFRKRYLSQPGQEGVFEARAIVFDGSDDYHKRINDPALEIDERCILVIRGAGPIGWPGSAEVVNMQPPDHLLKKGIMSLPTLGDGRQSGTADSPSILNASPESAIGGGLSWLRTGDTIRIDLNTGRCDALVDEATIAARKQDGIPAVPATMTPWQEIYRAHASQLDTGGVLEFAVKYQDLAAKLPRHNH
notes: His; made in house; host or cells: E. coli BL21
Km [7]: 1180 ± 50 µM
kcat [7]: 7.6 ± 1.1 s⁻¹
kcat/Km [7]: 6400 M⁻¹ s⁻¹

B8: Burkholderia xenovorans LB400 2-keto-3-deoxy-D-xylonate dehydratase (DR64_8450) (Paraburkholderia xenovorans LB400) (protein)
chain: MSATSPSSFLPDDLGQALLVGRVWRKTDQHEGPSVVVVRGGEVFDITATVPTTADLFDREDAAPLARTAPGVSLGAVAQLIASNLPGAAAPALRLLAPCDVQAIKACGVTFAVSLIERVIEEQAAGDPAKAKEVRDTIASMIGTDLSKIEPGSDAAMKLKAELERRGAWSQYMEVGIGPDAEVFSKSQPMSAVGFGADVGLLAASTWNNPEPEIVLAVNSRGEIVGATLGNDVNLRDIEGRSALLLGKCKDNNGSCAIGPFVRLFDESFSLDSVRTASVALRVEGADDGFVLEGVSHMSEISRDPANLVAQTWGRHHQYPDGFMLFLGTMFSPIKDRDAPGAGFTHHLGDLVTISTPQLGALTNTVRLSTEIEPWTFGVRALYRNLAARGLLASA
notes: coupled with D-xylonate dehydratase and KGSADH
Km [8]: 8960 ± 200 µM
kcat [8]: 4.72 ± 0.5 s⁻¹
kcat/Km [8]: 530 M⁻¹ s⁻¹

B9: Caulobacter crescentus 2-keto-3-deoxy-D-xylonate dehydratase (XylX) (Caulobacter vibrioides NA1000) (protein)
chain: MGVSEFLPEDWKAATLLGRIDFGEGPTPVLVRGGRVEDVSKIAPTVADLMNAFQPGAVIPRGEDKGPLEALDIRPVWEDPDGAAPVKLLAPVDLQCLKAAGVTFAVSTLERVIEERARGDAGEALKIRTLLAERMGGDLKSVEPGSQGAQRLKDALIADGLWSQYLEVAIGPDAEIFTKGPTLSSMGWGDQVGVRYDSHWNNPEPEVVLLCDGSGLIRGAALGNDVNLRDFEGRSALLLSKAKDNNASCAIGPFFRLFDETFGLDDVRSAEVELKITGRDNFVLDGKSNMSLISRDPAVLAGQAYGKQHQYPDGFALFLGTMFAPIQDRDTPGQGFTHKVGDRVRVSTPKLGVLENEVTTCDKAKPWTFGISALIRNLAGRGLL
notes: coupled with XylD and KGSADH; BlpI site removed in gene
Km [9]: 1900 ± 80 µM
kcat [9]: 0.53 ± 0.1 s⁻¹
kcat/Km [9]: 260 M⁻¹ s⁻¹
